Measurements from US20060024308A1.

Key:
human TNF-α (human) [1] = target: human TNF-α (human) (UniProt P01375)
human TNF-α (human) [2] = target: human TNF-α (human) (UniProt P01375); test: cell-based or functional assay

Sequence of human TNF-α (human) (P01375 77-233 limits assumed): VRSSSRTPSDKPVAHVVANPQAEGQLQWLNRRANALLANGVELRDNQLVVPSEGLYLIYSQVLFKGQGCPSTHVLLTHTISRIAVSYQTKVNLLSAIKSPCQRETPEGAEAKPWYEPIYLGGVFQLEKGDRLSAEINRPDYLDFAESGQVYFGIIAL

Humira (IgG1) (antibody)
ND50 (L929 cell survival, neutralisation of TNF-α cytotoxicity) (human TNF-α (human) [1]): 28 pM | Average IC50, neutralization of TNF-α cytotoxicity on L929 cells (human TNF-α (human) [2]): 0.023 nM
